Starred links: 1 amine or outer side, 2 acyl side, 3 side chain; linkers in the order of their positions; H or OH if unused. Non-standard residues stand in square brackets, D forms with d. Groups on a side chain read outwards from the residue. No end group written: not given here. *: point of attachment. C18 diacid = O=C(O)CCCCCCCCCCCCCCCCC(=O)*; γGlu = O=C(O)[C@H](CCC(=O)[*:2])N[*:1]; AEEA = NCCOCCOCC(=O)O; Aib = CC(C)(N)C(=O)O
Tests used:
Experiment in all cases: cell-based or functional assay
[1] = molecular target: GLP-1 receptor (human (printed as hGLP1R), UniProt P43220 24-463)
[2] = molecular target: T1, GIP receptor (human (printed as hGIPR), UniProt P48546 22-466)
T1 sequence (looked up): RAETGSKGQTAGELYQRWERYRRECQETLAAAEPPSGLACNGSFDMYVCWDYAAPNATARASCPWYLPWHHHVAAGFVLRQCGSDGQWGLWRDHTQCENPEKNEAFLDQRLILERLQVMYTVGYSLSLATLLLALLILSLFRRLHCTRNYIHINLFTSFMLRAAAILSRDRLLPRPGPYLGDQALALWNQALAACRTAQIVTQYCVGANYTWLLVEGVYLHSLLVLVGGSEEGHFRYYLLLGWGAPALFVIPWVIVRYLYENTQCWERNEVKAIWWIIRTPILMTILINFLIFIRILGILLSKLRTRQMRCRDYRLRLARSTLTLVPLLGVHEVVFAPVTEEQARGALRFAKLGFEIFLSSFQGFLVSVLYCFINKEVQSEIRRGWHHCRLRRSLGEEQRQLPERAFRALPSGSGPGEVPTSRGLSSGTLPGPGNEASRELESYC

[3] = molecular target: T2, NPY2 receptor (human (printed as hNPY2R), UniProt P49146 1-381)
T2 sequence (looked up): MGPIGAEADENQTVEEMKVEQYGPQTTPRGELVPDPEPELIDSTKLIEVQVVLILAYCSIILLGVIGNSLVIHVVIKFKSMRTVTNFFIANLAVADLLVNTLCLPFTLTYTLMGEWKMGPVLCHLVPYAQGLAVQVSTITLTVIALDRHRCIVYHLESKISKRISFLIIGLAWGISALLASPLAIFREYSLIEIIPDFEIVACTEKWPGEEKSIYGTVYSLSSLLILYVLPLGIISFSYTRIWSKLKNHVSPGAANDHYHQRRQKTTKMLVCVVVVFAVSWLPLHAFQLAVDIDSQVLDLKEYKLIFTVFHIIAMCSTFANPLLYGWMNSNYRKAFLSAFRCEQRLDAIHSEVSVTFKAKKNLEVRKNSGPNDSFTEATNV

[4] = molecular target: human GLP-1 receptor (human, UniProt P43220 24-463)
[5] = molecular target: T3, human GIP receptor (human, UniProt P48546 22-466)
T3 sequence (looked up): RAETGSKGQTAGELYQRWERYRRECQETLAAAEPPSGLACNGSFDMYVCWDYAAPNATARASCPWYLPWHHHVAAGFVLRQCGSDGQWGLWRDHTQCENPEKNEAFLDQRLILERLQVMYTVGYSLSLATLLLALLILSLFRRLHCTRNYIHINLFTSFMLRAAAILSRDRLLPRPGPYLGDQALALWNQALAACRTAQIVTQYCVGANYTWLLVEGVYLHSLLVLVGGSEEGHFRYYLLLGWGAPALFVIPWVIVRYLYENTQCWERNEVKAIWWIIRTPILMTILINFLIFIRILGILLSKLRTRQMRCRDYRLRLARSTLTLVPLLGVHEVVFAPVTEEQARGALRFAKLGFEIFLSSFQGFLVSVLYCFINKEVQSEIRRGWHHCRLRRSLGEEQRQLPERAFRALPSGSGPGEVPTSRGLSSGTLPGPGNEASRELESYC

[6] = molecular target: T4, human neuropeptide Y2 receptor (human, UniProt P49146 1-381)
T4 sequence (looked up): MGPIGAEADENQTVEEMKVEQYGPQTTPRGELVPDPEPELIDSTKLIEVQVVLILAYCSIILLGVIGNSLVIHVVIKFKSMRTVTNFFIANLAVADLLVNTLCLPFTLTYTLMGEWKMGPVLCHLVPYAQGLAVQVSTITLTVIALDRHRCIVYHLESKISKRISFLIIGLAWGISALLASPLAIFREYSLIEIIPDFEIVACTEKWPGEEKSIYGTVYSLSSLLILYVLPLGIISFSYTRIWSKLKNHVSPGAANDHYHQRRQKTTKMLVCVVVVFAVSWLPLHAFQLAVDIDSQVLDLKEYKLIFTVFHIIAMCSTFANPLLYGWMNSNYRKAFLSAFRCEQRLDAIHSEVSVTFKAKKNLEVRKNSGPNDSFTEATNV

| EC50 hGLP1R 0.5% hP (CreLuc) [1] | EC50 hGLP1R 100% hP (CreLuc) [1] | EC50 hGIPR 0.5% hP (CreLuc) [2] | EC50 hGIPR 100% hP (CreLuc) [2] | EC50 hNPY2R 0.5% hP (CreLuc) [3] | EC50 hNPY2R 100% hP (CreLuc) [3] | EC50 CreLuc hGLP1R 0.5% hP [4] | EC50 CreLuc hGLP1R 100% hP [4] | EC50 CreLuc hGIPR 0.5% hP [5] | EC50 CreLuc hGIPR 100% hP [5] | EC50 CreLuc hNPY2R 0.5% hP [6] | EC50 CreLuc hNPY2R 100% hP [6] | Binder |
| --- | --- | --- | --- | --- | --- | --- | --- | --- | --- | --- | --- | --- |
| 0.29 nM | 9.56 nM | 0.68 nM | 3.37 nM | 30.4 nM | 197 nM | – | – | – | – | – | – | YXEGTFTSDYSIXLEKQAQXEFVQWLIKGGPSEGASLRHYYNWLTRQRY (Aib at 2, 13, 20; K28 side chain carries C18DA-E-E-E-E-E (SEQ ID NO: 636); C-terminal amide) [Compound 176] |
| – | – | – | – | – | – | 0.04 nM | 0.82 nM | 0.14 nM | 0.49 nM | 10.5 nM | 26.5 nM | YXEGTFTSDYSIXLEKQAQXAFVQWLIKGGPSSGASLRHYYNWLTRQRY (Aib at 2, 13, 20; K28 side chain: C18DA-gGlu-gGlu-gGlu-gGlu-gGlu-OEG-OEG; C-terminal NH2) [Compound 167] |
| – | – | – | – | – | – | 0.3 nM | 6.31 nM | 0.33 nM | 0.91 nM | 8.23 nM | 21.9 nM | Y[Aib]EGTFTSDYSI[Aib]LEKQAQ[Aib]EFVQWLIK([AEEA-AEEA-γGlu-γGlu-γGlu-C18 diacid])GGPSEGASLRHYYNWLTRQRY-NH2 [Compound 160] |

The next lines start with the binder.

| Binder | EC50 hGLP1R 0.5% hP (CreLuc) [1] | EC50 hGLP1R 100% hP (CreLuc) [1] | EC50 hGIPR 0.5% hP (CreLuc) [2] | EC50 hGIPR 100% hP (CreLuc) [2] | EC50 hNPY2R 0.5% hP (CreLuc) [3] | EC50 hNPY2R 100% hP (CreLuc) [3] | EC50 CreLuc hGLP1R 0.5% hP [4] | EC50 CreLuc hGLP1R 100% hP [4] | EC50 CreLuc hGIPR 0.5% hP [5] | EC50 CreLuc hGIPR 100% hP [5] | EC50 CreLuc hNPY2R 0.5% hP [6] | EC50 CreLuc hNPY2R 100% hP [6] |
| --- | --- | --- | --- | --- | --- | --- | --- | --- | --- | --- | --- | --- |
| Y[Aib]EGTFTSDYSI[Aib]LEKQAQ[Aib]EFVQWLIK([Glu-Glu-Glu-Glu-Glu-Glu-C18 diacid])GGPSEGASLRHYYNWLTRQRY-NH2 (also: TFA salt) [Compound 179] | 0.22 nM | 10.5 nM | 0.38 nM | 3.34 nM | 18.5 nM | 111 nM | – | – | – | – | – | – |
| YXEGTFTSDYSIXLEKQAQXAFVEWLIKGGPRSGASLRHYYNWLTRQRY (Aib at 2, 13, 20; K28 side chain: C20DA-gGlu-gGlu-gGlu-gGlu-gGlu-gGlu-eLys; C-terminal NH2) [Compound 168] | – | – | – | – | – | – | 0.11 nM | 3.59 nM | 0.2 nM | 1.5 nM | 6.05 nM | 36.1 nM |
| YXEGTFTSDYSIXLEKQAQXAFVQWLIKGGPEEGASLRHYYNWLTRQRY (Aib at 2, 13, 20; K28 side chain: C18DA-gGlu-gGlu-gGlu-gGlu-gGlu-AHX; C-terminal NH2) [Compound 162] | – | – | – | – | – | – | 0.2 nM | 8.2 nM | 0.25 nM | 1.61 nM | 25.8 nM | 92.6 nM |
| Y[Aib]EGTFTSDYSI[Aib]LEKQAQ[Aib]AFVEWLIK([AEEA-AEEA-γGlu-γGlu-γGlu-γGlu-C18 diacid])GGPESGASLRHYYNWLTRQRY-NH2 [Compound 163] | – | – | – | – | – | – | 0.1 nM | 4.72 nM | 0.26 nM | 0.87 nM | 21.3 nM | 55.2 nM |
| Y[Aib]EGTFTSDYSI[Aib]LEKQAE[Aib]AFVQWLIKGGPSEGASLRHYYNWLTRQRY-NH2 (not fully specified (residue 28); also: TFA salt) [Compound 174] | 0.22 nM | 7.71 nM | 0.17 nM | 1.26 nM | 11.5 nM | 39.2 nM | – | – | – | – | – | – |

Source: US20240247080A1, “GLP1/GIP/NPY2 RECEPTOR TRIPLE AGONISTS” (Boehringer Ingelheim International GmbH, priority 2022, published 2024)
